Consider one molecule from patent publication US20190048049A1 (CERENIS THERAPEUTICS, published 2019).

Ends that are not written are not given here.

The target of the assay is T1, ApoA-I (human, UniProt P02647 25-267).
T1 construct: Stands in Cargomers as a monomer or multimer (1-8 molecules); also called apolipoprotein A-I; ApoA1
Nature of the assay: size exclusion chromatography of ApoA-I:M30 Cargomers, with increased temperature. On the technique in general: SEC sorts molecules by how far they enter the pores of the column.

T1 sequence (P02647 25-267 limits assumed): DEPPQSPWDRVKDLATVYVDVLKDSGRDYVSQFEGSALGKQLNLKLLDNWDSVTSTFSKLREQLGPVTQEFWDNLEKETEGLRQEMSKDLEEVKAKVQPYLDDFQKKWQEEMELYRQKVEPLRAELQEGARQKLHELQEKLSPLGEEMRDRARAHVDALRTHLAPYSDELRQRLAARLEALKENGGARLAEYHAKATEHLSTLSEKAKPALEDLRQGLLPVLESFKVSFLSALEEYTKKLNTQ

B1: M30 tumor antigen peptide coupled to PDP-PE lipid (peptide)
peptide: CSSVDWENVSPELNSTDQ
modifications: also: reacted with PDP-PE lipid, residue of attachment not given here
notes: Lipid-anchored peptide cargo of ApoA-I Cargomers (ApoA-I:TA molar ratios 1:2 and 1:4); also called TA peptide M30
Turning to B1, the binding result is reported as “binds”.
